Data from patent US20240209062A1 (INVETX, published 2024).
Numbering of substitutions follows the chain as printed. Names may count otherwise.

Biological target: T1, feline FcRn (soluble portion of large subunit p51 isoform X1 with C-terminal 6xHis-tag, co-expressed with … (feline, UniProt Q5MGS7 21-118))
T1 construct: Heterodimer made by co-expression in CHO cells, purified on HisTrap FF; also called FcRn complex
Test: SPR, Biacore T200, IgG captured on Protein L chip, feline FcRn flowed over, pH 5.9, 1:1 fit
Method: The feline FcRn binding experiments at pH 5.9 were completed on a BIACORE™ T200 instrument. A Series S Protein L Sensor chip (Cytiva, Cat. No. BR29205137) was used to capture the antibody variants via the kappa (κ) light chain. The feline variants were captured onto the protein L chip at a flow rate of 10 μL/min for 60 seconds. 1×PBX-P+(Cytiva Cat 28995084) was adjusted to pH 5.9 for the running buffer. The feline FcRn was flowed over the sensor chip at 30 μL/min for 120 seconds contact time and 600 seconds dissociation time. Regeneration of the flow cells was completed by flowing over 10 mM glycine, pH 1.7 at 30 μL/min for 30 seconds. The data were evaluated by the BIACORE™T200 Evaluation software v3.2.1 by fitting to a 1:1 kinetic interaction model.

T1 sequence (chain, as listed by the source limits assumed, chain 1 of 2): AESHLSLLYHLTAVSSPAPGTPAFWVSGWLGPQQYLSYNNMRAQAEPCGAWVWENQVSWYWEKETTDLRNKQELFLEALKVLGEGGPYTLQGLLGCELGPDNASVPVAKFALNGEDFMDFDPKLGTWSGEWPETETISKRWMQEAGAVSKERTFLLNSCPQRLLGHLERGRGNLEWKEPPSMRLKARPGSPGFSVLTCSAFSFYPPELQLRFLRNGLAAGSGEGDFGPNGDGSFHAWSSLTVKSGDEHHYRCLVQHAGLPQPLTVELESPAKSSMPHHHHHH
T1 sequence (Q5MGS7 other isoform, or with tags, fused parts or gaps limits assumed, chain 2 of 2): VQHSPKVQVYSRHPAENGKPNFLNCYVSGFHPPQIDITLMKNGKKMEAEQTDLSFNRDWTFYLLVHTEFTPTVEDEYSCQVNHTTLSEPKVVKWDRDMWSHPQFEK

B1: IgG with feline IgG1a Fc variant S252Y, R301V (antibody)
heavy: DVQLVESGGDLVKPGGSLRLTCVASGLSLTSDSMSWVRQAPGKGLQWVSTLWSNRGTYYTDSVKGRFTISKDNAENTLYLQMNNLKTEDTATYYCASIYYYEADYLHWYFDFWGQGALVTVSSASTTAPSVFPLAPSCGTTSGATVALACLVLGYFPEPVTVSWNSGALTSGVHTFPAVLQASGLYSLSSMVTVPSSRWLSDTFTCNVAHPPSNTKVDKTVRKTDHPPGPKPCDCPKCPPPEAAGGPSIFIFPPKPKDTLYISRTPEVTCLVVDLGPDDSDVQITWFVDNTQVYTAKTSPREEQFNSTYVVVSVLPILHQDWLKGKEFKCKVNSKSLPSPIERTISKAKGQPHEPQVYVLPPAQEELSRNKVSVTCLIKSFHPPDIAVEWEITGQPEPENNYRTTPPQLDSDGTYFVYSKLSVDRSHWQRGNTYTCSVSHEALHSHHTQKSLTQSPG
light: EIQMTQSPTSLSASVGDRVTITCRASEGIANNLSWYQQTPGKAPKLLIYATSNLHSGVPSRFSGSGSGTDFTLTISSLQPEDFATYYCQQGFKWPLTFGGGTKLEITRSDAQPSVFLFQPSLDELHTGSASIVCILNDFYPKEVNVKWKVDGVVQNKGIQESTTEQNSKDSTYSLSSTLTMSSTEYQSHEKFSCEVTHKSLASTLVKSFNRSECQRE
notes: IgG1a constant domain with MALA mutations (M234A, L244A as printed); variable domains from WO 2023/97275
- Kd: 38.7 nM
- koff: 0.028 s⁻¹
- kon: 724000 M⁻¹ s⁻¹

B2: IgG with feline IgG1a Fc variant S428M, L309E (antibody)
heavy: B1 heavy with Y261S, V310R, L318E, S439M
light: B1 light
notes: as for B1
- Kd: 45.6 nM
- koff: 0.0413 s⁻¹
- kon: 905000 M⁻¹ s⁻¹

B3: IgG with feline IgG1a Fc variant S428M, R301L (antibody)
heavy: B1 heavy with Y261S, V310L, S439M
light: B1 light
notes: as for B1
- Kd: 103 nM
- koff: 0.0835 s⁻¹
- kon: 809000 M⁻¹ s⁻¹

B4: IgG with feline IgG1a Fc variant S252Y, R301Y (antibody)
heavy: B1 heavy with V310Y
light: B1 light
notes: as for B1
- Kd: 37.6 nM
- koff: 0.0262 s⁻¹
- kon: 696000 M⁻¹ s⁻¹

B5: IgG with feline IgG1a Fc variant S252Y, T286D (antibody)
heavy: B1 heavy with T295D, V310R
light: B1 light
notes: as for B1
- Kd: 15.2 nM
- koff: 0.00955 s⁻¹
- kon: 631000 M⁻¹ s⁻¹

B6: IgG with feline IgG1a Fc variant S252Y, R392D (antibody)
heavy: B1 heavy with V310R, R403D
light: B1 light
notes: as for B1
- Kd: 25 nM
- koff: 0.0296 s⁻¹
- kon: 1.19e+06 M⁻¹ s⁻¹

B7: IgG with feline IgG1a Fc variant S428L, I377L (antibody)
heavy: B1 heavy with Y261S, V310R, I386L, S439L
light: B1 light
notes: Printed '1377L' read as I377L; IgG1a constant domain with MALA mutations (M234A, L244A as printed); variable domains from WO 2023/97275; also called S428L, 1377L
- Kd: 87.7 nM
- koff: 0.0723 s⁻¹
- kon: 819000 M⁻¹ s⁻¹

B8: IgG with feline IgG1a Fc variant S428L, R392D (antibody)
heavy: B1 heavy with Y261S, V310R, R403D, S439L
light: B1 light
notes: as for B1
- Kd: 104 nM
- koff: 0.0934 s⁻¹
- kon: 904000 M⁻¹ s⁻¹

B9: IgG with feline IgG1a Fc variant S252Y, R392E (antibody)
heavy: B1 heavy with V310R, R403E
light: B1 light
notes: as for B1
- Kd: 24.1 nM
- koff: 0.0287 s⁻¹
- kon: 1.19e+06 M⁻¹ s⁻¹

B10: IgG with feline IgG1a Fc variant S428L, R301Y (antibody)
heavy: B1 heavy with Y261S, V310Y, S439L
light: B1 light
notes: as for B1
- Kd: 99.1 nM
- koff: 0.0706 s⁻¹
- kon: 712000 M⁻¹ s⁻¹

B11: IgG with feline IgG1a Fc variant S252Y, T286E (antibody)
heavy: B1 heavy with T295E, V310R
light: B1 light
notes: as for B1
- Kd: 12.1 nM
- koff: 0.00783 s⁻¹
- kon: 650000 M⁻¹ s⁻¹

B12: IgG with feline IgG1a Fc variant S428M (antibody)
heavy: B1 heavy with Y261S, V310R, S439M
light: B1 light
notes: as for B1
- Kd: 70.1 nM
- koff: 0.0702 s⁻¹
- kon: 1.01e+06 M⁻¹ s⁻¹

B13: IgG with feline IgG1a Fc variant S428M, Q311V (antibody)
heavy: B1 heavy with Y261S, V310R, Q320V, S439M
light: B1 light
notes: as for B1
- Kd: 28.4 nM
- koff: 0.0319 s⁻¹
- kon: 1.12e+06 M⁻¹ s⁻¹

B14: IgG with feline IgG1a Fc variant S428L, R301L (antibody)
heavy: B1 heavy with Y261S, V310L, S439L
light: B1 light
notes: as for B1
- Kd: 115 nM
- koff: 0.116 s⁻¹
- kon: 1.01e+06 M⁻¹ s⁻¹

B15: IgG with feline IgG1a Fc variant S428M, T286D (antibody)
heavy: B1 heavy with Y261S, T295D, V310R, S439M
light: B1 light
notes: as for B1
- Kd: 34.9 nM
- koff: 0.0372 s⁻¹
- kon: 1.07e+06 M⁻¹ s⁻¹

B16: IgG with feline IgG1a Fc variant S428M, T286E (antibody)
heavy: B1 heavy with Y261S, T295E, V310R, S439M
light: B1 light
notes: as for B1
- Kd: 27.4 nM
- koff: 0.0292 s⁻¹
- kon: 1.07e+06 M⁻¹ s⁻¹

B17: IgG with feline IgG1a Fc variant S428M, R392E (antibody)
heavy: B1 heavy with Y261S, V310R, R403E, S439M
light: B1 light
notes: as for B1
- Kd: 97.8 nM
- koff: 0.0766 s⁻¹
- kon: 784000 M⁻¹ s⁻¹

B18: IgG with feline IgG1a Fc variant S428L, T286D (antibody)
heavy: B1 heavy with Y261S, T295D, V310R, S439L
light: B1 light
notes: as for B1
- Kd: 33.4 nM
- koff: 0.0333 s⁻¹
- kon: 1e+06 M⁻¹ s⁻¹

B19: IgG with feline IgG1a Fc variant S428M, R301V (antibody)
heavy: B1 heavy with Y261S, S439M
light: B1 light
notes: as for B1
- Kd: 98.5 nM
- koff: 0.0801 s⁻¹
- kon: 812000 M⁻¹ s⁻¹

B20: IgG with feline IgG1a Fc variant S428L, I377Y (antibody)
heavy: B1 heavy with Y261S, V310R, I386Y, S439L
light: B1 light
notes: Printed '1377Y' read as I377Y; IgG1a constant domain with MALA mutations (M234A, L244A as printed); variable domains from WO 2023/97275; also called S428L, 1377Y
- Kd: 107 nM
- koff: 0.117 s⁻¹
- kon: 1.09e+06 M⁻¹ s⁻¹

B21: IgG with feline IgG1a Fc variant S428M, L309D (antibody)
heavy: B1 heavy with Y261S, V310R, L318D, S439M
light: B1 light
notes: as for B1
- Kd: 177 nM
- koff: 0.104 s⁻¹
- kon: 592000 M⁻¹ s⁻¹

B22: IgG with feline IgG1a Fc variant S428L, R392E (antibody)
heavy: B1 heavy with Y261S, V310R, R403E, S439L
light: B1 light
notes: as for B1
- Kd: 96.5 nM
- koff: 0.0772 s⁻¹
- kon: 801000 M⁻¹ s⁻¹

B23: IgG with feline IgG1a Fc variant S428M, I377Y (antibody)
heavy: B1 heavy with Y261S, V310R, I386Y, S439M
light: B1 light
notes: Printed '1377Y' read as I377Y; IgG1a constant domain with MALA mutations (M234A, L244A as printed); variable domains from WO 2023/97275; also called S428M, 1377Y
- Kd: 70.8 nM
- koff: 0.0636 s⁻¹
- kon: 900000 M⁻¹ s⁻¹

B24: IgG with feline IgG1a Fc variant S428L, R301V (antibody)
heavy: B1 heavy with Y261S, S439L
light: B1 light
notes: as for B1
- Kd: 109 nM
- koff: 0.0832 s⁻¹
- kon: 763000 M⁻¹ s⁻¹

B25: IgG with feline IgG1a Fc variant S428L (antibody)
heavy: B1 heavy with Y261S, V310R, S439L
light: B1 light
notes: as for B1
- Kd: 64 nM
- koff: 0.0619 s⁻¹
- kon: 968000 M⁻¹ s⁻¹

B26: IgG with feline IgG1a Fc variant S428M, R392D (antibody)
heavy: B1 heavy with Y261S, V310R, R403D, S439M
light: B1 light
notes: as for B1
- Kd: 101 nM
- koff: 0.0795 s⁻¹
- kon: 789000 M⁻¹ s⁻¹

B27: IgG with feline IgG1a Fc variant S428M, I377L (antibody)
heavy: B1 heavy with Y261S, V310R, I386L, S439M
light: B1 light
notes: Printed '1377L' read as I377L; IgG1a constant domain with MALA mutations (M234A, L244A as printed); variable domains from WO 2023/97275; also called S428M, 1377L
- Kd: 76.2 nM
- koff: 0.0751 s⁻¹
- kon: 981000 M⁻¹ s⁻¹

B28: IgG with feline IgG1a Fc variant S428L, L309D (antibody)
heavy: B1 heavy with Y261S, V310R, L318D, S439L
light: B1 light
notes: as for B1
- Kd: 200 nM
- koff: 0.12 s⁻¹
- kon: 597000 M⁻¹ s⁻¹

B29: IgG with feline IgG1a Fc variant S428M, L309V (antibody)
heavy: B1 heavy with Y261S, V310R, L318V, S439M
light: B1 light
notes: as for B1
- Kd: 31.3 nM
- koff: 0.0358 s⁻¹
- kon: 1.15e+06 M⁻¹ s⁻¹

B30: IgG with feline IgG1a Fc variant S428M, R301Y (antibody)
heavy: B1 heavy with Y261S, V310Y, S439M
light: B1 light
notes: as for B1
- Kd: 98.7 nM
- koff: 0.082 s⁻¹
- kon: 830000 M⁻¹ s⁻¹
